Among the data in article PMC12956587 are stoichiometry N values, retold here.

The stoichiometry N is a count of units in the complex or per binding partner.

In the experiment the target is WIN332 SOSIP Env trimer (HIV-1 strain BG505). The experiment in a line: SEC. For orientation: In gel filtration, larger molecules generally elute earlier.

The substance WIN332 SOSIP Env trimer (complex) came in with a stoichiometry N of 3.
